Patent publication US20200255543A1 (ROCKEFELLER UNIVERSITY, published 2020)

Columns and labels:
recombinant human MERTK [1] = molecular target: T1, recombinant human MERTK (human, UniProt Q12866 21-505, limits assumed); test: biolayer interferometry, M19 loaded on AMQ sensor at 1 ug/mL, hMer in solution at 0.1563 nM, local 1:1 fit
T1 construct: Analyte in solution in biolayer interferometry; also called hMer
T1 sequence: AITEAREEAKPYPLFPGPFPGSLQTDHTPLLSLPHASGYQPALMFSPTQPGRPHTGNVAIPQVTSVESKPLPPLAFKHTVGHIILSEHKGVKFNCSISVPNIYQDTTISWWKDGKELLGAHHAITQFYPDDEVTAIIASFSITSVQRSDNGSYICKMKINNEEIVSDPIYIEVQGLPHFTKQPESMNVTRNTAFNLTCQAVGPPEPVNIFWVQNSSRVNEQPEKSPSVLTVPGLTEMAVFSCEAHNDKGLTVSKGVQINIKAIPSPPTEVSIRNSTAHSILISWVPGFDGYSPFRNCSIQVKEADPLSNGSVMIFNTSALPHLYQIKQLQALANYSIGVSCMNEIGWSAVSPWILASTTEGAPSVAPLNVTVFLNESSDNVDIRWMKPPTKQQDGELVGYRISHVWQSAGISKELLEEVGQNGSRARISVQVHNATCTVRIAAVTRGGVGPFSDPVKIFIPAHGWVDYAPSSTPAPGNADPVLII
Method: (§1) FIG. 7: M19 binds to human MERTK with high affinity. A diagram showing antibody binding kinetics for M19 (Mer-M19) against human MERTK (hMer) using biolayer interferometry. Purified M19 was loaded on an AMQ sensor at a concentration of 1 microgram/mL to test binding against analytes in solution. All analytes were prepared at 5 nM with a 2-fold dilution series for a total of 7 concentrations. Kinetic fits were calculated using a 1:1 model, with Local fits for each concentration as well as an overall global fit.
(§2) To characterize the binding affinity of M19 antibody against recombinant human and mouse MERTK, biomolecular interaction analysis was performed using biolayer interferometry (FIG. 7 and FIG. 8). Binding was observed between M19 and both mouse and human MERTK.

recombinant human MERTK [2] = molecular target: T1, recombinant human MERTK; test: biolayer interferometry, M19 loaded on AMQ sensor at 1 ug/mL, hMer in solution at 0.625 nM, local 1:1 fit
Method: as §1, §2

recombinant mouse MERTK [3] = molecular target: T2, recombinant mouse MERTK (mouse, UniProt Q60805 23-496, limits assumed); test: biolayer interferometry, M19 loaded on AMQ sensor at 1 ug/mL, msMer in solution at 0.3125 nM, local 1:1 fit
T2 construct: Analyte in solution in biolayer interferometry; also called msMer; murine MERTK
T2 sequence (looked up): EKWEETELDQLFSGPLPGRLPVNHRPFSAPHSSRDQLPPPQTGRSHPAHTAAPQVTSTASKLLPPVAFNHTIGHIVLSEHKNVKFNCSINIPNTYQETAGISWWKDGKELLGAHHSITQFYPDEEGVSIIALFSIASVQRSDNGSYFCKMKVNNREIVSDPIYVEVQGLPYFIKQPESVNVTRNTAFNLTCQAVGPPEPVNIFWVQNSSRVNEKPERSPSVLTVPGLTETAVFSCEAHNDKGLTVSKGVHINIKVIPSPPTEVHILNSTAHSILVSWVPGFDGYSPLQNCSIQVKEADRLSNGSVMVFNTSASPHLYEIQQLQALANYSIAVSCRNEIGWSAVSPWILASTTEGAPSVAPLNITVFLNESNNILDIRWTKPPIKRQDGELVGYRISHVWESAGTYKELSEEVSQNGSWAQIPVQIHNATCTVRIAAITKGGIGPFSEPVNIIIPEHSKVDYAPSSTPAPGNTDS
Method: (§3) FIG. 8: M19 binds to murine MERTK with high affinity. A diagram showing antibody binding kinetics for M19 (Mer-M19) against murine MERTK (msMer) using biolayer interferometry. Purified M19 was loaded on an AMQ sensor at a concentration of 1 microgram/mL to test binding against analytes in solution. All analytes were prepared at 5 nM with a 2-fold dilution series for a total of 7 concentrations. Kinetic fits were calculated using a 1:1 model, with Local fits for each concentration as well as an overall Global fit.
as §2

recombinant human MERTK [4] = molecular target: T1, recombinant human MERTK; test: biolayer interferometry, M19 loaded on AMQ sensor, hMer analyte from 5 nM in 2-fold dilutions, 1:1 model, global fit
Method: as §1

recombinant human MERTK [5] = molecular target: T1, recombinant human MERTK; test: biolayer interferometry, M19 loaded on AMQ sensor at 1 ug/mL, hMer in solution at 5 nM, local 1:1 fit
Method: as §1, §2

recombinant mouse MERTK [6] = molecular target: T2, recombinant mouse MERTK; test: biolayer interferometry, M19 loaded on AMQ sensor at 1 ug/mL, msMer in solution at 5 nM, local 1:1 fit
Method: as §3, §2

recombinant mouse MERTK [7] = molecular target: T2, recombinant mouse MERTK; test: biolayer interferometry, global fit; mouse MERTK
Method: as §3

recombinant human MERTK [8] = molecular target: T1, recombinant human MERTK; test: biolayer interferometry, global fit; human MERTK
Method: as §1

recombinant human MERTK [9] = molecular target: T1, recombinant human MERTK; test: biolayer interferometry, M19 loaded on AMQ sensor at 1 ug/mL, hMer in solution at 1.25 nM, local 1:1 fit
Method: as §1, §2

recombinant mouse MERTK [10] = molecular target: T2, recombinant mouse MERTK; test: biolayer interferometry, M19 loaded on AMQ sensor, msMer analyte from 5 nM in 2-fold dilutions, 1:1 model, global fit
Method: as §3

recombinant mouse MERTK [11] = molecular target: T2, recombinant mouse MERTK; test: biolayer interferometry, M19 loaded on AMQ sensor at 1 ug/mL, msMer in solution at 0.1563 nM, local 1:1 fit
Method: as §3, §2

B1: monoclonal antibody M19 (antibody, V domains shown)
VH: EVQLEESGPDLKKPGETVKISCKASNYTFTDYSMHWVKQAPGKGLKWVGWINTDTGEPTYADDFKGRFAFSLETSASTAYLQINNLKNEDTATYFCARWFGAMDYWGQGTSVTVSS
VL: DIVITQSHKFMSTSVGDRVSITCKASQDVTNVVAWYQQKPGQSPKLLIYSASYRYTGVPDRFTGSGSGTDFTFTISSVQAEDLAVYYCQQYYRTPRTFGGGTKLEIKR
notes: Mouse hybridoma monoclonal antibody; Hybridoma supernatant was used in the ELISA screen, purified antibody in biolayer interferometry; also called Mer-M19
B1 gave a Kd (recombinant human MERTK [1]) of 0.621 nM, a koff (recombinant human MERTK [1]) of 0.000949 s⁻¹ and a kon (recombinant human MERTK [1]) of 1.53e+06 M⁻¹ s⁻¹. For the same binder, the Kd (recombinant human MERTK [2]) was 0.155 nM, the koff (recombinant human MERTK [2]) was 0.00079 s⁻¹ and the kon (recombinant human MERTK [2]) was 5.11e+06 M⁻¹ s⁻¹. It also gave a Kd (recombinant mouse MERTK [3]) of 0.115 nM, a koff (recombinant mouse MERTK [3]) of 0.00106 s⁻¹ and a kon (recombinant mouse MERTK [3]) of 9.23e+06 M⁻¹ s⁻¹. The Kd (recombinant human MERTK [4]) was 0.326 nM, the Kd (recombinant human MERTK [5]) was 0.246 nM and the koff (recombinant human MERTK [5]) was 0.000951 s⁻¹. It also gave a kon (recombinant human MERTK [5]) of 3.86e+06 M⁻¹ s⁻¹, a Kd (recombinant mouse MERTK [6]) of 0.354 nM and a koff (recombinant mouse MERTK [6]) of 0.00133 s⁻¹. The kon (recombinant mouse MERTK [6]) was 3.77e+06 M⁻¹ s⁻¹, the Kd (recombinant mouse MERTK [7]) was about 0.3 nM and the Kd (recombinant human MERTK [8]) was about 0.3 nM. For the same binder, the Kd (recombinant human MERTK [9]) was 0.297 nM, the koff (recombinant human MERTK [9]) was 0.00102 s⁻¹ and the kon (recombinant human MERTK [9]) was 3.44e+06 M⁻¹ s⁻¹. The Kd (recombinant mouse MERTK [10]) was 0.305 nM, the Kd (recombinant mouse MERTK [11]) was 0.117 nM and the koff (recombinant mouse MERTK [11]) was 0.00129 s⁻¹. The kon (recombinant mouse MERTK [11]) was 1.1e+07 M⁻¹ s⁻¹.
